Measurements from the nanobody polyreactivity screen of Harvey et al. (2022).

Experiment: yeast display, Sf9 membrane polyspecificity reagent, FACS + sequencing; frameworks hold sequencing errors
Summary of the method: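 In a synthetic yeast display library (Saccharomyces cerevisiae BJ5465), nanobody expression was induced with galactose for 36–48 hours. FACS gates were set low and high (top ~1%) using anti-HA fluorescence for expression and streptavidin fluorescence for binding of the Sf9 membrane reagent. Each polyreactivity label is drawn from the gate of origin.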

Which “polyreactivity (PSR sort gate)” value does the source give for “QVQLVESGGVLVQAGGSLRLSCAASGSTFDSYAMGWYRQAPGKERELVAAISYGGGSTYYADSVKGRFTISRDNAKNTVYLQMNSLKPEDTAVYYCAARNARGVVGRTESKVTYDYWGQGTQVTVSS” here?
Its value is “high polyreactivity”.

For “QVQLVESGGGLVQAGGSLRLSCAASGRIFYYNTMGWYREAPGTERELVAAISSGAGRTYYADSVKGRFTISRDNAMNTVYLQMNSLKPEDTAVYYCAARFYVIKWYDYWGQGTQVTVSS”, which “polyreactivity (PSR sort gate)” value is on record?
Its value is “high polyreactivity”.

Which “polyreactivity (PSR sort gate)” value does the source give for “QVQLQESGGGLVQAGGSMRLSCAASGSISELSPMGWYRQAPGKERELVAGISTGGSTNYADSVKGRFTISRDNAKNTVYLQMNSLKPEDTAVYYCAAASYGEGSYDYWGQGTQVTVRS” here?
The value was “high polyreactivity”.

With “QVQLVESGGGLVQAGGSLRLSCAASGITFAFYDMGWYRQAPGKERELVAAISYSGGGTYYADSVKGRFTISRDNAKNTVYLQMNSLKPEDTAVYYCAADPKTHALFGEDYWGQGTQVTVSS” as the sequence, how does the “polyreactivity (PSR sort gate)” value read?
The value was “low polyreactivity”.

Which “polyreactivity (PSR sort gate)” value does the source give for “QVQLVESGGGLVQAGGSLRLSCAASGSILRYNAMGWYSQARAKEREWVASISRGGGTNYAYSVKGRFTISRDNAKNTVYLQINSLKQEDTAVYYCAALTLRVDYDSQWYSLVDYWGQGTEVTVSS” here?
The value was “low polyreactivity”.

Which “polyreactivity (PSR sort gate)” value does the source give for “QVQHVESGGVLVQARGSLRLTCAASGSTFIRNAMGWYRQAPGKERELVAAISASGGRSYYADSVKGRFTFSRDNAKTSVYCQLNSLKSEDTAVYYFAARNARYVHTMVFWGQGTQVTVSS” here?
Its value is “high polyreactivity”.

Which “polyreactivity (PSR sort gate)” value does the source give for “QVQLVESGGGLVQAGGSLRLSCAASGSTFAYYVMGWYRQAPGKERELVAAITSSGGRTYYADSVKGRFTISRDNAKNTVYLQMNSQKPEDTAVYYCAKVSQRRVDNSDYDYWGQGTQVTVSS” here?
The value was “high polyreactivity”.

With “QVHLVESGGGLVQAGGSLRLSCAASGSTFSYYAMGWYRQAPGKERELVAAISRSGGSTYYPDSVKGRFTISRDNAKNTVYLQMNSLKPEDTADYSCNRYYYTVTREFDYWGQGSQVTVSS” as the sequence, how does the “polyreactivity (PSR sort gate)” value read?
Its value is “low polyreactivity”.

For “QVQLVESGGGLVQAGGSLRLICDASGRILTGNAMGWYRQAPGKERELVAAISYNGGRTYYADSVKGRFTISRDNAKNTVYLQMNSLKPEDTAVYYCNVVRRQLQTSHPYGYWGQGTQVTVSS”, which “polyreactivity (PSR sort gate)” value is on record?
The value was “low polyreactivity”.

For “QVQLVESGGGLVQAGGSLRLSCAASGFTFYAYAMGWYRQAPGKERELVAAISRTGGRTYYADSVKGRFTISRDNAKNTVYLQMNSLKPEDTAVYYCNRAGLHSTGYDYWGQGTQVTVSS”, which “polyreactivity (PSR sort gate)” value is on record?
The value was “high polyreactivity”.

With “QVQLLESGGGLVQAGGSLRLSCAASGRIFPYNAMGWYRQAPGKERELVAAISRSGGRTYYADSVKGRFTISRDNAKNTVYLQRNSLKPEDTAVYYCAAKYQAGENYWGQGTQVTVSS” as the sequence, how does the “polyreactivity (PSR sort gate)” value read?
Its value is “high polyreactivity”.

Which “polyreactivity (PSR sort gate)” value does the source give for “QVQLVESGGGLVQAGGSLRLSCAASGSISSQYGMGWYRQAAGKERDLVATIRDGGRTNYADSVKGRFTISRDNGKNTVYLQMNSLKPEDTAVYYCAALYWYYYTWPLYDYWVQGTQVTVSS” here?
The value was “low polyreactivity”.

For “QVQLVDSGGGLVQAGGSLRLSCAASGFTFTLNAMGWYRQAPGKERELVAGISSGGSTNYADSVKGRFTISRDNAKNTVYLQMNSLKPEDTAVYYCAADRGYVWRYDYWGEGTQVTVSS”, which “polyreactivity (PSR sort gate)” value is on record?
Its value is “low polyreactivity”.

Which “polyreactivity (PSR sort gate)” value does the source give for “QVQLVESGGGLVQAGGSLRLSCAASGSTSFLYALGWYRQAPGKERELVAAISRSGGTTYYADSVKGRFTISRDNAKNTVYLQMNSLKPEDTAVYYCNAVGPKRYDYWGQGTQVTVSS” here?
The value was “high polyreactivity”.

Which “polyreactivity (PSR sort gate)” value does the source give for “QVQLVESGGGLVQAGGSLRLSCAASGSTFTLNTMGWYRQAPGKERELVAGIRSGGSTYYADSVKGRFTISRDNAKNTVYLQMHSLKPEDTAVYYCAADRRWFAYWFDYWGQGTQVTVSS” here?
Its value is “low polyreactivity”.

For “QVQLVESRGGLVQAGGSLRLSCAASGRIFAWNAMGWSRQAPGKERELVAVITSGGNTNYADSVTGRFTISRDNAKNTVYLQLNSLKPEDTAVYYCPKIGYAKRTRFWSHYDYWGQGTQVTVSS”, which “polyreactivity (PSR sort gate)” value is on record?
The value was “high polyreactivity”.

With “QVQLVESGGGLVQAGGSLRLSCAASGRTFRNYAMGWYRQAPGKERELVAGITYSGGSTFYADSVKGRFTISRDNAKNTVYLQMNSLKPEDAAVYYCAAVYVPYYWLGRSRGLDYWGQGTQVTVSS” as the sequence, how does the “polyreactivity (PSR sort gate)” value read?
Its value is “high polyreactivity”.

Which “polyreactivity (PSR sort gate)” value does the source give for “QVQLEESGGGLVQAGGSLRLSCAASGITFEYYAMVWYRQAPGKERELVAANDTGGSTNYADSVKGRFTISRDNAKNTVYFLMNSLKPEDTEVYYCAADWSWWDGEDYHFEYDYWGQGTQVTVSS” here?
The value was “low polyreactivity”.

For “QVQLVESGGGLFQAGGSLRLSCAASGRTLRRNALGWYRQAPWKERELVAAISTGGGSTYYADSVKGRFTISRDYAKKTVYLQINSLNPEDSAVYYCAAVYSQSTKRYELYYWGQGTQVTVSS”, which “polyreactivity (PSR sort gate)” value is on record?
Its value is “high polyreactivity”.

Which “polyreactivity (PSR sort gate)” value does the source give for “QVQLVESGGGLVQAGGSLRLSCAASGSIFYPNAMGWYRQAPGKERELVAAITTGGSTNYADSVKGRFTISRDNAKNTVYLQMNSLKPEDTAVYYCNARHRYHSYTQPRWKYDYWGQGTQVTVSS” here?
Its value is “low polyreactivity”.

With “QVQLVESGGGLVQARGSLRLSCAASGSTFIRYAMGWYRQAPGKERELVAAITWRGGSTYYADSVKGRFTISRDNAKNTVYLQMNSLKPEDTAVYYCAARDRDTRNYYWGQGTQGTVSS” as the sequence, how does the “polyreactivity (PSR sort gate)” value read?
Its value is “high polyreactivity”.

Which “polyreactivity (PSR sort gate)” value does the source give for “QVQLVESGGGLVQAGGSLRLSCAASGFTFAYYTMGWYRQAPGKERELVAAINWSGGSTYYADSVKGRFTISRDYAKNTVYLQMNSLKPEDTAVYYCAAKSYWWATYDYWGQGTQVTVSS” here?
Its value is “high polyreactivity”.

With “QVQLVESGGGLVQAGGSLRFSCAASGSTFRDYAMGWYRQAPGKERELVAAISSRGATTYYADSVKGRFTISRDNAKNTVYLQMNSLKPEDTAVYYCNARQRRNPGGYGYWGQGTQVTVSS” as the sequence, how does the “polyreactivity (PSR sort gate)” value read?
Its value is “high polyreactivity”.

For “QVQRVESGGGLVQAGGSLRLSCAASGFIFGRYAMGWYRQAPGKERELVAASTWGGDSTYYADSVKGRFTISRDNAKNTVYLQMNSLKPEDTAVYYCAAYPQRRFYWQYRYDYWGQGTQVTVSS”, which “polyreactivity (PSR sort gate)” value is on record?
The value was “high polyreactivity”.

Which “polyreactivity (PSR sort gate)” value does the source give for “QVQLVESGGGLVQAGGSLRLSCAASGRIFRFYAMGWYRKAPGKERELVAAISSSGVRTYYADSVKGRFTISRDNAKNTVYLQMNSLKPEDTAVYYCAKRTVWWSNWHYYPPTYNYWGQGTQVTVSS” here?
Its value is “high polyreactivity”.

With “QVQLVESGGGLVQAGGSLRLSCAASGSIFTGNAMGWYRQAPGKERELVAAIRRSGA” as the sequence, how does the “polyreactivity (PSR sort gate)” value read?
Its value is “low polyreactivity”.

For “QVQLVESGGGLVQAGGSLRLSCAASGSIIRGNAMGWYSQAPGKERELVATITNGGSTNYADSVKGRFTISRDNAKNTVYFQMNSMKPEDTAVYYCNADHSYHIASTRHVDFWGQGTQVTVSS”, which “polyreactivity (PSR sort gate)” value is on record?
The value was “low polyreactivity”.

With “QVQLVESGGGLVQAGVSLRLSCAASGSTFTYNAKGWYRQEPGKEMELVAAIRSNGGSTYADSVKGRFTISRDNAKNTVYFQMNSMKPEDTAVYYCAARWRDYYRWGSRGGYGYWGQGTQVTVSS” as the sequence, how does the “polyreactivity (PSR sort gate)” value read?
Its value is “high polyreactivity”.

For “QVQLVESGGGLVQAGGSLRLSCAASGLTFQWYAMGWYRQAPGKERELVAAISIGGSTNYADSVKGRFTISRDNAKNTVYLQMNSLKPEDTAVYYCNKGSDFFWYDYDYWGQGTQVTVSS”, which “polyreactivity (PSR sort gate)” value is on record?
Its value is “low polyreactivity”.

Which “polyreactivity (PSR sort gate)” value does the source give for “QVQLVESGGGLVQAGGSLRLSCAASGSIFYLYAMGWYRHAPGKERELVATITVSGSSTYADSVKGRFTISRDNAKNTVYLQMISLKPEDTAVYYCAADGGRQVYTQLYDYWGQGTQVTVSS” here?
Its value is “low polyreactivity”.

With “QVQLVESGGGLVQAGGSLRLSCAASGSILYRYAMGWYRQAPGKERELVAAITRSGGSTYYADSVKGRFTITRDNAKNTVYFQMNSLKPEDTAGYYCARQRKVSAHSIEMDYWGQGTQVTVSS” as the sequence, how does the “polyreactivity (PSR sort gate)” value read?
The value was “low polyreactivity”.

For “QVQLVESGGGLVQAGGSLRLSCAASGFTFPQNAKGWYRQAPGKERELVAAITNGGTTYYADSVKGRFTISRDNAKNTVYLQMNSLKPEDTAVYYCAAYTYRYGSFKYGYWGQGTQVTVSS”, which “polyreactivity (PSR sort gate)” value is on record?
Its value is “low polyreactivity”.

With “QVQLVESGGGLVQAGGSLRLSCAASGSILLAYVMGWYRPAPGKERELVAAISSGDDTKYADSVKGRFTISRDNAMNTVYLQMNSLKPEDTAVYYCNAYTLDYPYHRFGYWGQGTQVTVSS” as the sequence, how does the “polyreactivity (PSR sort gate)” value read?
The value was “low polyreactivity”.

Which “polyreactivity (PSR sort gate)” value does the source give for “QVQLVESGGGLVQAGGSLRLSCAASGRTFWSYAMGWYRPAPGKERELVAAINSSGDSTNYADSVKGRFTISRDNAKNTVYLQMNWLKPEDTAVYYCAADGGLLAGSDATVRMDYWGQGTQVTVSS” here?
The value was “low polyreactivity”.

With “QVQLVESGGGLVQAGGPLRLSCAASGIIFGFYAMGWYRQPPGKERELVADITSSGGSTYYADSVKGRFTISRDNAKNTVYLQINSLKPEDTAVYYCAADGVPGGPPVEGMDYWGQGTQVTVSS” as the sequence, how does the “polyreactivity (PSR sort gate)” value read?
Its value is “low polyreactivity”.

Which “polyreactivity (PSR sort gate)” value does the source give for “QVQLVESGGGLVQAGGSLRLSCAASGIIFGYYAMGGYRQAPGKERELVAAISSRGSRTYYADSVKGRFTISRDNAKNTVYLQMNSLKPEDTAVYYCAARHFARMGYWGQGTQVTVSS” here?
Its value is “high polyreactivity”.

Which “polyreactivity (PSR sort gate)” value does the source give for “QVQLVESGGGLVQAGGSLRLSCAASGLTLSYTMGWYRQAPGKERELVASITWSGTRTYYADSVKGRFTISRDNAKNTVYLQMNSLKPEDTAVYYCARRSSYGSWGYNYWGQGTQVTVSS” here?
The value was “high polyreactivity”.

For “QVQLVESGGCLVQAGGSLRLSCAASGSIMYSYAMAWYRQAPGQERELVAAITGDGASTNYADYVKGRFTISRDNAKNTVYLQMNSLKPEDTAVYYCNAGRESDDVYEGSQRIGQFDYWGQGTQVTVSS”, which “polyreactivity (PSR sort gate)” value is on record?
The value was “low polyreactivity”.

For “QVQLVESGGGLVQAGGSLRLSCAASGYTFKSYVMGWYRQAPGKERELVAAITSIGGSTYYADSVKGRFTISRDNAKNTVYLQMNRLKPEDTAVYYCAARSFRFYPRMHDWGQGTQVTVSS”, which “polyreactivity (PSR sort gate)” value is on record?
Its value is “high polyreactivity”.

For “QVQLVESGGGLVQAGGSLRLSCAASGRTFVRYAMGWYRQAPGKEREFVAAISWSTGSTYFADSVKGRFTISRDNAKNTVYLQMNSLKPEDTAVYYCAADGYTTYWLLYEYDYWGQGTQVTVSS”, which “polyreactivity (PSR sort gate)” value is on record?
Its value is “low polyreactivity”.

Which “polyreactivity (PSR sort gate)” value does the source give for “QVQLVESGGGLVQAGGSLRLSCAASGSTSTLYAMGWYRQAPGKERELVAAISKSGGRTYYADSVKGRFTISRDNAKNTVYLQMNSLKPEDTAVYYCNTVPGRYRTFDYWGQGTQVTVSS” here?
Its value is “high polyreactivity”.
